Measurements: patent US11071755 (CRISPR THERAPEUTICS, dated 2021)

T1: recombinant biotinylated human BCMA (human, UniProt Q02223 1-54, biotinylated)
T1 construct: Soluble labelled reagent, detected with streptavidin-APC; also called recombinant BCMA; biotinylated BCMA
T1 sequence (looked up): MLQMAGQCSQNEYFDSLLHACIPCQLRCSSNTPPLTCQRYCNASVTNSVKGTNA


biological target: T1, recombinant biotinylated human BCMA; assay: flow cytometry, recombinant BCMA on CAR-T cells
Procedure: Allogeneic anti-BCMA CAR T cells were generated as described above. Anti-BCMA CAR expression was measured by determining the percent of cells that bound biotinylated BCMA subsequently detected by FACS using streptavidin-APC (FIG. 47).
Figure 48: FIG. 48 is a graph showing anti-BCMA CAR expression. Allogeneic CAR T cells were generated as previously described. Anti-BCMA CAR expression was measured by determining the percent of cells that bound biotinylated recombinant human BCMA subsequently detected by FACS using streptavidin-APC. […] CAR constructs were evaluated for their ability to kill RPMI-8226 cells. […] Following enrichment/purification, greater than 99.5% of the gene edited cells are TCR negative.

| Binder | binding result |
| --- | --- |
| anti-BCMA CAR of CTX-152 (BCMA-1: CD8[signal peptide]-VH-linker-VL-CD8[tm]-CD28[co-stimulatory domain]-CD3z) (other, CAR on edited primary human T cells, co-expressed with GFP from a bicistronic 2A mRNA; also called BCMA-1 CAR) QVQLQQSGGGLVQPGGSLKLSCAASGIDFSRYWMSWVRRAPGKGLEWIGEINPDSSTINYAPSLKDKFIISRDNAKNTLYLQMSKVRSEDTALYYCASLYYDYGDAMDYWGQGTSVTVSSGGGGSGGGGSGGGGSGDIVMTQSQRFMTTSVGDRVSVTCKASQSVDSNVAWYQQKPRQSPKALIFSASLRFSGVPARFTGSGSGTDFTLTISNLQSEDLAEYFCQQYNNYPLTFGAGTKLELKSAAAFVPVFLPAKPTTTPAPRPPTPAPTIASQPLSLRPEACRPAAGGAVHTRGLDFACDIYIWAPLAGTCGVLLLSLVITLYCNHRNRSKRSRLLHSDYMNMTPRRPGPTRKHYQPYAPPRDFAAYRSRVKFSRSADAPAYQQGQNQLYNELNLGRREEYDVLDKRRGRDPEMGGKPRRKNPQEGLYNELQKDKMAEAYSEIGMKGERRRGKGHDGLYQGLSTATKDTYDALHMQALPPR | binds |
| anti-BCMA CAR of CTX-154 (BCMA-2: CD8[signal peptide]-VL-linker-VH-CD8[tm]-CD28[co-stimulatory domain]-CD3z) (other, CAR on edited primary human T cells, co-expressed with GFP from a bicistronic 2A mRNA; also called BCMA-2 CAR) DIVMTQSQRFMTTSVGDRVSVTCKASQSVDSNVAWYQQKPRQSPKALIFSASLRFSGVPARFTGSGSGTDFTLTISNLQSEDLAEYFCQQYNNYPLTFGAGTKLELKGGGGSGGGGSGGGGSGQVQLQQSGGGLVQPGGSLKLSCAASGIDFSRYWMSWVRRAPGKGLEWIGEINPDSSTINYAPSLKDKFIISRDNAKNTLYLQMSKVRSEDTALYYCASLYYDYGDAMDYWGQGTSVTVSSSAAAFVPVFLPAKPTTTPAPRPPTPAPTIASQPLSLRPEACRPAAGGAVHTRGLDFACDIYIWAPLAGTCGVLLLSLVITLYCNHRNRSKRSRLLHSDYMNMTPRRPGPTRKHYQPYAPPRDFAAYRSRVKFSRSADAPAYQQGQNQLYNELNLGRREEYDVLDKRRGRDPEMGGKPRRKNPQEGLYNELQKDKMAEAYSEIGMKGERRRGKGHDGLYQGLSTATKDTYDALHMQALPPR | binds |

biological target: T1, recombinant biotinylated human BCMA; assay: flow cytometry, biotinylated BCMA on CAR-T cells detected with streptavidin-APC
Procedure: Allogeneic TRAC−/B2M−/anti-BCMA CAR T+ cells were generated, as described above, having either a CD28 co-stimulatory domain (encoded by CTX-160 or CTX-166) or a 4-1BB co-stimulatory domain (encoded by CTX160b or CTX166b). Anti-BCMA CAR expression was measured by determining the percent of cells that bound biotinylated BCMA subsequently detected by FACS using streptavidin-APC (FIG. 67). Greater than 60% of the cells expressed the CAR at the cell surface.

| Binder | percent of cells that bound biotinylated BCMA |
| --- | --- |
| anti-BCMA CAR of CTX-166 (CD28 co-stimulatory domain) (other, CAR on edited primary human T cells; also called anti-BCMA (CD28) CAR) QVQLVQSGAELKKPGASVKVSCKASGNTLTNYVIHWVRQAPGQRLEWMGYILPYNDLTKYSQKFQGRVTITRDKSASTAYMELSSLRSEDTAVYYCTRWDWDGFFDPWGQGTTVTVSSGGGGSGGGGSGGGGSEIVMTQSPATLSVSPGERASISCRASQSLVHSNGNTHLHWYQQRPGQAPRLLIYSVSNRFSEVPARFSGSGSGTDFTLTISSVESEDFAVYYCSQTSHIPYTFGGGTKLEIKSAAAFVPVFLPAKPTTTPAPRPPTPAPTIASQPLSLRPEACRPAAGGAVHTRGLDFACDIYIWAPLAGTCGVLLLSLVITLYCNHRNRSKRSRLLHSDYMNMTPRRPGPTRKHYQPYAPPRDFAAYRSRVKFSRSADAPAYQQGQNQLYNELNLGRREEYDVLDKRRGRDPEMGGKPRRKNPQEGLYNELQKDKMAEAYSEIGMKGERRRGKGHDGLYQGLSTATKDTYDALHMQALPPR | > 60% |
| anti-BCMA CAR of CTX-166b (4-1BB co-stimulatory domain) (other, CAR on edited primary human T cells; also called anti-BCMA (4-1BB) CAR) QVQLVQSGAELKKPGASVKVSCKASGNTLTNYVIHWVRQAPGQRLEWMGYILPYNDLTKYSQKFQGRVTITRDKSASTAYMELSSLRSEDTAVYYCTRWDWDGFFDPWGQGTTVTVSSGGGGSGGGGSGGGGSEIVMTQSPATLSVSPGERASISCRASQSLVHSNGNTHLHWYQQRPGQAPRLLIYSVSNRFSEVPARFSGSGSGTDFTLTISSVESEDFAVYYCSQTSHIPYTFGGGTKLEIKSAAAFVPVFLPAKPTTTPAPRPPTPAPTIASQPLSLRPEACRPAAGGAVHTRGLDFACDIYIWAPLAGTCGVLLLSLVITLYCNHRNRKRGRKKLLYIFKQPFMRPVQTTQEEDGCSCRFPEEEEGGCELRVKFSRSADAPAYQQGQNQLYNELNLGRREEYDVLDKRRGRDPEMGGKPRRKNPQEGLYNELQKDKMAEAYSEIGMKGERRRGKGHDGLYQGLSTATKDTYDALHMQALPPR | > 60% |
| anti-BCMA CAR of CTX-160 (CD28 co-stimulatory domain) (other, CAR on edited primary human T cells; also called anti-BCMA (CD28) CAR) EVQLVESGGGLVQPGGSLKLSCAASGIDFSRYWMSWVRQAPGKGLEWIGEINPDSSTINYADSVKGRFTISRDNAKNTLYLQMNLSRAEDTALYYCASLYYDYGDAMDYWGQGTLVTVSSGGGGSGGGGSGGGGSDIQMTQSPSSLSASVGDRVTITCRASQSVDSNVAWYQQKPEKAPKSLIFSASLRFSGVPSRFSGSGSGTDFTLTISSLQPEDFATYYCQQYNSYPLTFGAGTKLEIKSAAAFVPVFLPAKPTTTPAPRPPTPAPTIASQPLSLRPEACRPAAGGAVHTRGLDFACDIYIWAPLAGTCGVLLLSLVITLYCNHRNRSKRSRLLHSDYMNMTPRRPGPTRKHYQPYAPPRDFAAYRSRVKFSRSADAPAYQQGQNQLYNELNLGRREEYDVLDKRRGRDPEMGGKPRRKNPQEGLYNELQKDKMAEAYSEIGMKGERRRGKGHDGLYQGLSTATKDTYDALHMQALPPR | > 60% |
| anti-BCMA CAR of CTX-160b (4-1BB co-stimulatory domain) (other, CAR on edited primary human T cells; also called anti-BCMA (4-1BB) CAR) EVQLVESGGGLVQPGGSLKLSCAASGIDFSRYWMSWVRQAPGKGLEWIGEINPDSSTINYADSVKGRFTISRDNAKNTLYLQMNLSRAEDTALYYCASLYYDYGDAMDYWGQGTLVTVSSGGGGSGGGGSGGGGSDIQMTQSPSSLSASVGDRVTITCRASQSVDSNVAWYQQKPEKAPKSLIFSASLRFSGVPSRFSGSGSGTDFTLTISSLQPEDFATYYCQQYNSYPLTFGAGTKLEIKSAAAFVPVFLPAKPTTTPAPRPPTPAPTIASQPLSLRPEACRPAAGGAVHTRGLDFACDIYIWAPLAGTCGVLLLSLVITLYCNHRNRKRGRKKLLYIFKQPFMRPVQTTQEEDGCSCRFPEEEEGGCELRVKFSRSADAPAYQQGQNQLYNELNLGRREEYDVLDKRRGRDPEMGGKPRRKNPQEGLYNELQKDKMAEAYSEIGMKGERRRGKGHDGLYQGLSTATKDTYDALHMQALPPR | > 60% |
